T1: Murine OPG-Fc (mouse, UniProt O08712 22-401)
T1 sequence (looked up): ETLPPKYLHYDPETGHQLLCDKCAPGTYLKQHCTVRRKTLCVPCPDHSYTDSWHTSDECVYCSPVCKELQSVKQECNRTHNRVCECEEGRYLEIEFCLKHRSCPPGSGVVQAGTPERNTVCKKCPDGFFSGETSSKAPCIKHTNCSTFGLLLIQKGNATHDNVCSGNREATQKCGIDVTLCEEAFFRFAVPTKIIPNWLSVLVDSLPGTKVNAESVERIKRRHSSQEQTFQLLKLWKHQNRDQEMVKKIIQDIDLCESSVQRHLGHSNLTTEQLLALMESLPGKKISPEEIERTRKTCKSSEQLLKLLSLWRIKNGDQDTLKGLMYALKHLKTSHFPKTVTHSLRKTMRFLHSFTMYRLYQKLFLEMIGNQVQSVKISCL

T2: Murine RANK-Fc (mouse, UniProt O35305 31-214)
T2 sequence (looked up): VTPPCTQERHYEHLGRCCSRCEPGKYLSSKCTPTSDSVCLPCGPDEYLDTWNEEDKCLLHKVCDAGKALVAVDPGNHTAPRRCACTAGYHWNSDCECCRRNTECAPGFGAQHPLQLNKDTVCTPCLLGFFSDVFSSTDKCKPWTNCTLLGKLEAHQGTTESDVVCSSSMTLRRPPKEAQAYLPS


Key:
Murine OPG-Fc [1] = target: T1, Murine OPG-Fc; assay: SPR
Murine RANK-Fc = target: T2, Murine RANK-Fc; assay: SPR
Murine OPG-Fc [2] = target: T1, Murine OPG-Fc; assay: ELISA

Binder | Kd (Murine OPG-Fc [1]) [pM] | koff (Murine OPG-Fc [1]) [s⁻¹] | kon (Murine OPG-Fc [1]) [M⁻¹ s⁻¹] | Kd (Murine RANK-Fc) [pM] | koff (Murine RANK-Fc) [s⁻¹] | kon (Murine RANK-Fc) [M⁻¹ s⁻¹] | binding relative to RANKL_WT (Murine OPG-Fc [2]) [%]
RANKL_WT (mouse soluble RANKL, aa 160–316) (ligand, UniProt O35235 160-316, looked up) EAQPFAHLTINAASIPSGSHKVTLSSWYHDRGWAKISNMTLSNGKLRVNQDGFYYLYANICFRHHETSGSVPTDYLQLMVYVVKTSIKIPSSHNLMKGGSTKNWSGNSEFHFYSINVGGFFKLRAGEEISIQVSNPSLLDPDQDATYFGAFKVQDID | 4.3 ± 1.6 | 7e-05 | 1.8e+07 | 11.9 ± 1.5 | 0.0001 | 8.4e+06 | –
RANKL_Q236D (ligand, mouse, UniProt O35235 160-316, looked up) EAQPFAHLTINAASIPSGSHKVTLSSWYHDRGWAKISNMTLSNGKLRVNQDGFYYLYANICFRHHETSGSVPTDYLDLMVYVVKTSIKIPSSHNLMKGGSTKNWSGNSEFHFYSINVGGFFKLRAGEEISIQVSNPSLLDPDQDATYFGAFKVQDID | 112 ± 24.4 | 0.0007 | 6e+06 | 15 ± 3.2 | 9e-05 | 6.4e+06 | 25
RANKL_Q236K (ligand, mouse, UniProt O35235 160-316, looked up) EAQPFAHLTINAASIPSGSHKVTLSSWYHDRGWAKISNMTLSNGKLRVNQDGFYYLYANICFRHHETSGSVPTDYLKLMVYVVKTSIKIPSSHNLMKGGSTKNWSGNSEFHFYSINVGGFFKLRAGEEISIQVSNPSLLDPDQDATYFGAFKVQDID | 143 ± 44.6 | 0.00146 | 1.1e+07 | 119 ± 10.5 | 0.00095 | 8e+06 | –
RANKL_Q236P (ligand, mouse, UniProt O35235 160-316, looked up) EAQPFAHLTINAASIPSGSHKVTLSSWYHDRGWAKISNMTLSNGKLRVNQDGFYYLYANICFRHHETSGSVPTDYLPLMVYVVKTSIKIPSSHNLMKGGSTKNWSGNSEFHFYSINVGGFFKLRAGEEISIQVSNPSLLDPDQDATYFGAFKVQDID | 21.3 ± 8.2 | 0.00022 | 1.1e+07 | 19.8 ± 6 | 0.00012 | 6.1e+06 | –
RANKL_Q236S (ligand, mouse, UniProt O35235 160-316, looked up) EAQPFAHLTINAASIPSGSHKVTLSSWYHDRGWAKISNMTLSNGKLRVNQDGFYYLYANICFRHHETSGSVPTDYLSLMVYVVKTSIKIPSSHNLMKGGSTKNWSGNSEFHFYSINVGGFFKLRAGEEISIQVSNPSLLDPDQDATYFGAFKVQDID | 23.3 ± 4.5 | 0.00031 | 1.4e+07 | 24.9 ± 5.1 | 0.00018 | 7e+06 | –

Next, values leading:

Kd (Murine OPG-Fc [1]) [pM] | koff (Murine OPG-Fc [1]) [s⁻¹] | kon (Murine OPG-Fc [1]) [M⁻¹ s⁻¹] | Kd (Murine RANK-Fc) [pM] | koff (Murine RANK-Fc) [s⁻¹] | kon (Murine RANK-Fc) [M⁻¹ s⁻¹] | binding relative to RANKL_WT (Murine OPG-Fc [2]) [%] | Binder
20.7 ± 3.7 | 0.00031 | 1.5e+07 | 22.1 ± 2.9 | 0.00017 | 7.9e+06 | – | RANKL_Q236N (ligand, mouse, UniProt O35235 160-316, looked up) EAQPFAHLTINAASIPSGSHKVTLSSWYHDRGWAKISNMTLSNGKLRVNQDGFYYLYANICFRHHETSGSVPTDYLNLMVYVVKTSIKIPSSHNLMKGGSTKNWSGNSEFHFYSINVGGFFKLRAGEEISIQVSNPSLLDPDQDATYFGAFKVQDID
20.5 ± 2.2 | 0.00033 | 1.6e+07 | 21.5 ± 6.6 | 0.00018 | 8.9e+06 | – | RANKL_Q236A (ligand, mouse, UniProt O35235 160-316, looked up) EAQPFAHLTINAASIPSGSHKVTLSSWYHDRGWAKISNMTLSNGKLRVNQDGFYYLYANICFRHHETSGSVPTDYLALMVYVVKTSIKIPSSHNLMKGGSTKNWSGNSEFHFYSINVGGFFKLRAGEEISIQVSNPSLLDPDQDATYFGAFKVQDID
16.6 ± 1.6 | 0.00022 | 1.3e+07 | 18.7 ± 2.8 | 0.00013 | 6.7e+06 | – | RANKL_Q236H (ligand, mouse, UniProt O35235 160-316, looked up) EAQPFAHLTINAASIPSGSHKVTLSSWYHDRGWAKISNMTLSNGKLRVNQDGFYYLYANICFRHHETSGSVPTDYLHLMVYVVKTSIKIPSSHNLMKGGSTKNWSGNSEFHFYSINVGGFFKLRAGEEISIQVSNPSLLDPDQDATYFGAFKVQDID
